These results are taken from US20230365714A1 (published 2023).

For test [1], the target named is T1, ROR221 shuffle variant (Ig-like domain and CRD of ROR2, kringle domain of ROR1) (human (ROR1/ROR2 chimera), UniProt Q01973 30-937).
T1 chain: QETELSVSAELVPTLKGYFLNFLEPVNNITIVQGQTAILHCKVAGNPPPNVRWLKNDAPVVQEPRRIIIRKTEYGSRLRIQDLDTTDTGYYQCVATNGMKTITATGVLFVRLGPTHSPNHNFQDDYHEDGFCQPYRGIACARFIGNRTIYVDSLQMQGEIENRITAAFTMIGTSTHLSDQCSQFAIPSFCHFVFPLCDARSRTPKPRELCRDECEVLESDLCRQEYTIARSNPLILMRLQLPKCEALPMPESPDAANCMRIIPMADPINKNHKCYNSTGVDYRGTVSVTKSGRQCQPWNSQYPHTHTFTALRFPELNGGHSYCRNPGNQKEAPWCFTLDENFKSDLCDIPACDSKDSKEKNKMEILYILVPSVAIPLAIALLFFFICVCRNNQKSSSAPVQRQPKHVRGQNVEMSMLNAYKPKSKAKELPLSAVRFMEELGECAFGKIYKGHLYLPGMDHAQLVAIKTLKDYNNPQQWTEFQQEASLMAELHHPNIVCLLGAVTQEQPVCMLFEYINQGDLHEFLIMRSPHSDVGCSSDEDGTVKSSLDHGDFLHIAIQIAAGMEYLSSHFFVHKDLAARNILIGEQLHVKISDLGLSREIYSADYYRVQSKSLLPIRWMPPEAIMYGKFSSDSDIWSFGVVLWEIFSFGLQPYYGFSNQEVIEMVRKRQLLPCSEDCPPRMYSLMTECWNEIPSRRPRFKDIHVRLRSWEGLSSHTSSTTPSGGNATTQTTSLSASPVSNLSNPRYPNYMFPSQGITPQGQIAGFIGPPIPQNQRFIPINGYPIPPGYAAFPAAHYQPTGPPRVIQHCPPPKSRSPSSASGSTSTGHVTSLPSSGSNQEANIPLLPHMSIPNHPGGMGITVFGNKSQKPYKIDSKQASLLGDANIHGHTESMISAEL
Nature of the test: cell imaging (CellInsight) on CHO cells expressing the shuffle construct. The method, then:
Binding was determined […] using a cell imaging screening system (Celllnsight, Thermo Fisher) as per manufacturer's recommendations. In short, CHO cells expressing shuffle constructs ROR112, ROR121, ROR122, ROR211 or ROR221 (3,000 cells/well in 384-well plates) were incubated with antibody or control samples for 18 h at 37° C./5% CO₂, washed and incubated with an Alexa488-labeled detection antibody for 4 h. Hoechst dye was added and fluorescence images were collected, measuring total spot intensity (RFU).

For test [2], the target named is T2, his-tagged ROR2 extracellular domain (ROR2-ECD, G&P Biosciences, cat. no. FCL0192) (human, UniProt Q01974 34-403).
T2 construct: Bought protein; also called human ROR2-ECD; recombinant human ROR2-ECD; not shown: his tag
Briefly: BLI (Octet HTX), antibody on anti-human IgG Fc sensor, ROR2-ECD as analyte. As to the method:
Experiments were carried out while shaking at 1,000 RPM at 30° C.
Anti-Human IgG Fc Capture (AHC) biosensors (ForteBio, cat. no. 18-5060) were pre-conditioned by exposure to 10 mM glycine (Riedel-de Haen, cat. no. 15527) buffer pH 1.7 for 5 s, followed by neutralization in Sample Diluent (ForteBio, cat. no. 18-1048) for 5 s; both steps were repeated 5 times. Next, AHC sensors were loaded with the antibody (2.5 μg/mL in Sample diluent) for 600 s. After a baseline measurement in Sample Diluent (300 s), the association (1,000 s) and dissociation (1,000 s) of a commercially available his-tagged ROR2 extracellular domain (ROR2-ECD, G&P Biosciences, cat. no. FCL0192) was determined using a concentration range of 6.25-400 nM with two-fold dilution steps in Sample Diluent. The calculated molecular mass of ROR2 ECD based on their amino acid sequences of 42.7 kDa was used for calculations. For each antibody a reference sensor was used, which was incubated with Sample Diluent instead of antigen. AHC sensors were regenerated by exposure to 10 mM glycine buffer pH 1.7 for 5 s, followed by neutralization in Sample Diluent for 5 s; both steps were repeated twice. Subsequently sensors were loaded again with antibody for the next cycle of kinetics measurements.
The Y-axis was aligned to the last 10 s of the baseline, Interstep Correction alignment to dissociation and Savitzky-Golay filtering were applied.
A general note: Biolayer interferometry detects binding as a change in optical thickness at a sensor tip.

B1: chIgG1-ROR2-A (antibody, V domains shown)
VH: QSVEESGGRLVTPGTPLTLTCTVSGFSLSSYSMSWVRQAPGKGLEWIGVIYVNSKTWYANWAKGRFTISKTSTTVDLKITSPTTEDTATYFCARGDAGYTTNSWLWGPGTLVTVSS
VL: AFELTQTPASVSEPVGGTVTIKCQASESIDNYCSWYQQKPGQPPKLLIYQAFKLASGVPSRFRGSGSGTQFTLTISDLESDDAATYYCQSYSGISTTAFGGGTEVVVK
notes: Rabbit-human chimeric antibody; also called ROR2 specific antibody A
One may read the Kd as the free concentration of one partner at which half of the binding sites on the other are occupied at equilibrium, for simple one-to-one binding. Lower therefore signals higher affinity. Usually koff stands for the rate constant with which the complex falls apart. The low end stands for a long-lived complex, the high end for a short-lived complex. Broadly, the kon is a measure of how fast the partners come together. Higher therefore signals fast association. Take B1: in test [1], the “RFU (total spot intensity)” value was 0 RFU and the binding result is recorded as “no binding (tested: RFU = 0)”. In test [2], the affinity, expressed as Kd, was 1.6 nM; the off-rate constant (koff) was found to be 0.00095 s⁻¹; the kon was 610000 M⁻¹ s⁻¹.
